# According to the supplement of paper PMC9112550, “Optimization of the antimicrobial peptide Bac7 by deep mutational scanning” (BMC Biology, 2022):
# Test system: Escherichia coli TOP10
# Experiment: shrunken log2 fold change of peptide-encoding DNA abundance (4.5 h post-induction vs induction); higher = less antimicrobial activity (less host growth inhibition)
# Settings: time post-induction: 4.5 h; library: site-saturation at positions 5, 18, 19, 20
# 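Also: peptides expressed intracellularly from a pBAD plasmid library in pooled LB shake-flask culture, induced with 0.3% L-arabinose, DNA abundance read by NGS, three biological replicates, DESeq2 with apeglm shrinkage.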
row,Sequence,shrunken log2 fold change
1,RRIRNRPPRLPRPRPRPQPLPRP,-0.102
2,RRIRVRPPRLPRPRPRPPPRPRP,1.03
3,RRIRHRPPRLPRPRPRPISYPRP,0.121
4,RRIRPRPPRLPRPRPRPHCKPRP,-0.633
5,RRIRQRPPRLPRPRPRPWISPRP,-0.0848
6,RRIRIRPPRLPRPRPRPMSEPRP,-0.00782
7,RRIRFRPPRLPRPRPRPVGEPRP,0.29
8,RRIRMRPPRLPRPRPRPYWNPRP,-1.04
9,RRIRRRPPRLPRPRPRPDYHPRP,-0.0959
10,RRIRFRPPRLPRPRPRPQSLPRP,-0.274
11,RRIRYRPPRLPRPRPRPKRNPRP,-0.374
12,RRIRIRPPRLPRPRPRPVFMPRP,-0.275
13,RRIRDRPPRLPRPRPRPMQRPRP,-0.00663
14,RRIRSRPPRLPRPRPRPHWGPRP,-0.107
15,RRIRKRPPRLPRPRPRPHLAPRP,0.0615
16,RRIRWRPPRLPRPRPRPSCPPRP,-0.33
17,RRIRPRPPRLPRPRPRPAIHPRP,-0.196
18,RRIRIRPPRLPRPRPRPCWVPRP,-0.451
19,RRIRNRPPRLPRPRPRPIPDPRP,-0.0956
20,RRIRSRPPRLPRPRPRPQMWPRP,0.0996
21,RRIRQRPPRLPRPRPRPGDMPRP,-0.164
22,RRIRSRPPRLPRPRPRPCQGPRP,-0.028
23,RRIRIRPPRLPRPRPRPNEKPRP,-0.0849
24,RRIRRRPPRLPRPRPRPVNCPRP,0.148
25,RRIRPRPPRLPRPRPRPMYCPRP,-0.0366

row,Sequence,shrunken log2 fold change
1,RRIRYRPPRLPRPRPRPKENPRP,-0.0772
2,RRIRARPPRLPRPRPRPECGPRP,1.23
3,RRIRERPPRLPRPRPRPWGMPRP,0.115
4,RRIRLRPPRLPRPRPRPMNLPRP,-0.31
5,RRIRQRPPRLPRPRPRPINLPRP,-0.123
6,RRIRMRPPRLPRPRPRPKDAPRP,2.02
7,RRIRPRPPRLPRPRPRPSIWPRP,-0.11
8,RRIRYRPPRLPRPRPRPSVFPRP,-0.219
9,RRIRQRPPRLPRPRPRPSIPPRP,-0.751
10,RRIRIRPPRLPRPRPRPLRGPRP,0.694
11,RRIRKRPPRLPRPRPRPDYKPRP,-0.208
12,RRIRCRPPRLPRPRPRPKGHPRP,-0.17
13,RRIRPRPPRLPRPRPRPDMQPRP,-0.21
14,RRIRVRPPRLPRPRPRPNNEPRP,-0.301
15,RRIRPRPPRLPRPRPRPVAFPRP,-0.0622
16,RRIRCRPPRLPRPRPRPVYTPRP,-0.222
17,RRIRARPPRLPRPRPRPSFWPRP,0.354
18,RRIRHRPPRLPRPRPRPMGWPRP,0.317
19,RRIRRRPPRLPRPRPRPPIEPRP,0.339
20,RRIRSRPPRLPRPRPRPVVFPRP,0.11
21,RRIRMRPPRLPRPRPRPGLLPRP,0.251
22,RRIRLRPPRLPRPRPRPSEIPRP,-0.397
23,RRIRKRPPRLPRPRPRPFHCPRP,-0.0128
24,RRIRVRPPRLPRPRPRPQHTPRP,-0.0855
25,RRIRSRPPRLPRPRPRPEAWPRP,0.0495

row,Sequence,shrunken log2 fold change
1,RRIRHRPPRLPRPRPRPMLFPRP,-0.0839
2,RRIRSRPPRLPRPRPRPQYWPRP,-0.397
3,RRIRIRPPRLPRPRPRPFCPPRP,-0.463
4,RRIRLRPPRLPRPRPRPCERPRP,-0.0471
5,RRIRRRPPRLPRPRPRPKTCPRP,0.265
6,RRIRSRPPRLPRPRPRPCCPPRP,-0.0457
7,RRIRPRPPRLPRPRPRPLQIPRP,-0.161
8,RRIRPRPPRLPRPRPRPSQWPRP,-0.0044
9,RRIRHRPPRLPRPRPRPREPPRP,0.773
10,RRIRLRPPRLPRPRPRPGPHPRP,-0.0887
11,RRIRGRPPRLPRPRPRPKSFPRP,0.0944
12,RRIRRRPPRLPRPRPRPCMAPRP,0.61
13,RRIRRRPPRLPRPRPRPNGLPRP,0.0125
14,RRIRLRPPRLPRPRPRPRAKPRP,0.139
15,RRIRVRPPRLPRPRPRPVRTPRP,0.103
16,RRIRWRPPRLPRPRPRPCFRPRP,0.021
17,RRIRIRPPRLPRPRPRPSYWPRP,-0.781
18,RRIRLRPPRLPRPRPRPNNIPRP,-0.559
19,RRIRERPPRLPRPRPRPFEGPRP,-0.105
20,RRIRNRPPRLPRPRPRPNCSPRP,7.72e-05
21,RRIRHRPPRLPRPRPRPNDSPRP,-0.072
22,RRIRMRPPRLPRPRPRPTYNPRP,-0.361
23,RRIRVRPPRLPRPRPRPQNYPRP,-0.285
24,RRIRPRPPRLPRPRPRPMGQPRP,0.0687
25,RRIRPRPPRLPRPRPRPIVRPRP,0.029

row,Sequence,shrunken log2 fold change
1,RRIRWRPPRLPRPRPRPRLAPRP,0.84
2,RRIRLRPPRLPRPRPRPNAGPRP,0.0644
3,RRIRQRPPRLPRPRPRPYCIPRP,-0.0416
4,RRIRMRPPRLPRPRPRPQWLPRP,0.351
5,RRIRFRPPRLPRPRPRPFWLPRP,0.0058
6,RRIRHRPPRLPRPRPRPFLHPRP,-0.449
7,RRIRARPPRLPRPRPRPVPKPRP,0.791
8,RRIRCRPPRLPRPRPRPECSPRP,0.231
9,RRIRSRPPRLPRPRPRPWDKPRP,-0.252
10,RRIRFRPPRLPRPRPRPPIYPRP,-0.416
11,RRIRKRPPRLPRPRPRPWHDPRP,-0.406
12,RRIRGRPPRLPRPRPRPGHRPRP,0.263
13,RRIRTRPPRLPRPRPRPYFLPRP,-1.18
14,RRIRERPPRLPRPRPRPQFHPRP,-0.629
15,RRIRARPPRLPRPRPRPQKKPRP,-0.0278
16,RRIRQRPPRLPRPRPRPYIHPRP,-0.912
17,RRIRYRPPRLPRPRPRPNHDPRP,-0.433
18,RRIRWRPPRLPRPRPRPFVKPRP,-0.753
19,RRIRCRPPRLPRPRPRPTEAPRP,0.425
20,RRIRRRPPRLPRPRPRPGSGPRP,0.407
21,RRIRVRPPRLPRPRPRPPLNPRP,-0.098
22,RRIRFRPPRLPRPRPRPTYCPRP,-0.339
23,RRIRVRPPRLPRPRPRPKKRPRP,0.154
24,RRIRNRPPRLPRPRPRPAKPPRP,-0.00229
25,RRIRSRPPRLPRPRPRPIKEPRP,-0.0466

row,Sequence,shrunken log2 fold change
1,RRIRQRPPRLPRPRPRPSGSPRP,-0.0833
2,RRIRQRPPRLPRPRPRPRCFPRP,-0.0694
3,RRIRSRPPRLPRPRPRPEWGPRP,0.0115
4,RRIRERPPRLPRPRPRPNEHPRP,-0.445
5,RRIRERPPRLPRPRPRPGLCPRP,0.00687
6,RRIRSRPPRLPRPRPRPAGWPRP,0.795
7,RRIRHRPPRLPRPRPRPAKKPRP,0.0694
8,RRIRTRPPRLPRPRPRPHLSPRP,-0.0793
9,RRIRARPPRLPRPRPRPQKIPRP,-0.108
10,RRIRKRPPRLPRPRPRPNHPPRP,0.0844
11,RRIRVRPPRLPRPRPRPRECPRP,0.175
12,RRIRVRPPRLPRPRPRPHVYPRP,-0.13
13,RRIRRRPPRLPRPRPRPCHIPRP,-0.309
14,RRIRLRPPRLPRPRPRPFVGPRP,4.94e-06
15,RRIRTRPPRLPRPRPRPAYVPRP,-0.27
16,RRIRSRPPRLPRPRPRPKRPPRP,0.413
17,RRIRWRPPRLPRPRPRPKADPRP,0.353
18,RRIRERPPRLPRPRPRPYLIPRP,-0.626
19,RRIRARPPRLPRPRPRPWYDPRP,-0.32
20,RRIRLRPPRLPRPRPRPHVGPRP,-0.442
21,RRIRPRPPRLPRPRPRPGEQPRP,1.29
22,RRIRVRPPRLPRPRPRPVQAPRP,-0.0106
23,RRIRKRPPRLPRPRPRPYYVPRP,-0.197
24,RRIRKRPPRLPRPRPRPLRSPRP,0.962
25,RRIRQRPPRLPRPRPRPQIDPRP,-0.0357

row,Sequence,shrunken log2 fold change
1,RRIRLRPPRLPRPRPRPNNAPRP,-0.221
2,RRIRFRPPRLPRPRPRPCSAPRP,-0.103
3,RRIRIRPPRLPRPRPRPPNTPRP,-0.464
4,RRIRTRPPRLPRPRPRPSNDPRP,-0.557
5,RRIRTRPPRLPRPRPRPTFLPRP,-0.0937
6,RRIRHRPPRLPRPRPRPYVLPRP,-0.14
7,RRIRNRPPRLPRPRPRPYPYPRP,-0.242
8,RRIRCRPPRLPRPRPRPGWNPRP,-0.243
9,RRIRQRPPRLPRPRPRPPSPPRP,0.426
10,RRIRDRPPRLPRPRPRPECWPRP,1.84
11,RRIRPRPPRLPRPRPRPPGKPRP,0.335
12,RRIRTRPPRLPRPRPRPFYTPRP,-0.373
13,RRIRMRPPRLPRPRPRPPTPPRP,1.66
14,RRIRARPPRLPRPRPRPFKGPRP,-0.104
15,RRIRERPPRLPRPRPRPFDCPRP,-0.0657
16,RRIRNRPPRLPRPRPRPWMHPRP,-0.228
17,RRIRHRPPRLPRPRPRPLAYPRP,-0.351
18,RRIRRRPPRLPRPRPRPNKCPRP,-0.634
19,RRIRDRPPRLPRPRPRPTESPRP,-0.00177
20,RRIRHRPPRLPRPRPRPWHDPRP,-0.00088
21,RRIRRRPPRLPRPRPRPSHMPRP,0.157
22,RRIRCRPPRLPRPRPRPHVMPRP,-0.743
23,RRIRFRPPRLPRPRPRPELSPRP,0.0455
24,RRIRKRPPRLPRPRPRPTRDPRP,0.753
25,RRIRNRPPRLPRPRPRPYMCPRP,-0.18
